Here are results for 19 sequences from the DeepSol protein solubility set.

The series is described as follows: soluble on expression in E. coli; label from the status in PepcDB or PDB records.
Regarding “MGMTIVEKILAKASGKKEVSPGDIVMANIDVAMVHDITGPLTVNTLKEYGIEKVWNPEKIVILFDHQVPADSIKAAENHILMRKFVKEQGIKYFYDIREGVCHQVLPEKGHVAPGEVVVGADSHTCTHGAFGAFATGIGSTDMAHVFATGKLWFKVPET”, the “soluble on expression in E. coli” value is “not soluble”.

Turning to “MSKFNRIHLVVLDSVGIGAAPDADKFFNAGVADTDSDTLGHISEAAGLSVPNMAKIGLGNISRPIPLKTVPTEDNPTGYVTKLEEVSLGKDTMTGHWEIMGLNITEPFDTFWNGFPEEILTKIEEFSGRKIIREANKPYSGTAVIDDFGPRQMETGELIVYTSADPVLQIAAHEDIIPVEELYKICEYARSITLERPALLGRIIARPYVGDPGNFTRTANRHDYAVSPFQDTVLNKLADAGVPTYAVGKINDIFNGSGITNDMGHNKSNSHGIDTLIKTLQLPEFTKGFSFTNLVDFDANFGHRRDPEGYRDCLHEFDNRLPEIIANMKEDDLLLITADHGNDPTYAGTDHTREYIPLLAYSVSFTGNGLIPQGHFADISATVAENFGVDTAMIGESFLSHLK”, the “soluble on expression in E. coli” value is on record as “not soluble”.

Take “MAHHHHHHMNPMDALIARAAAEERQQAKMKQKSTRVSGESDLDHPSPSAAFPDSVISRGERASILCYVDPAATTTSSNFSVRRLRTFSACPTFKGGMIMRLTMCHDAQHLTVAFESGHIVLARYRDADVIDMADEPGEVCHAGGSMSVARVRNVTRAFADSALACWWSGRRMLACSSEGGMHCYDVSATAEGLLEAHLVWSVTLRKGIGSVFLQRNLVVAGCWDSTLRLYDARDGRLVSILSYQRETINEVRAAPPSIARVAAFGFDVRQPRLYAGQPGALSTKIPACIASNSKAVTQGNLPQFSESPLRETYVAGTPTPHSSSGSLAAEEQLVYLFASASKACTVALWRVDLGLVVEQTAREAIAAQTV”: the “soluble on expression in E. coli” value is “not soluble”.

In the case of “VFILPDCNPVLKFISSARERLLIIAPYIDFRWYKDDGLLEAIKGAKESGAEVKVVLNAKYAKEEAVSTLRKEGVKVELIDNLHGKAIVSDKRLLITSANMNMHGLKLNREIGVIINNPEMADAVIKEFEGGEVTPLD”, the “soluble on expression in E. coli” value is reported as “not soluble”.

In the case of “MAANFWNSSHYKQLLDPEEVDVVHDLDKERGISIDDFKLIKFHMSNHIMKLAQHIKVRQRVVATAITYMRRVYIRKSMVEFEPRLVALTCLYLASKAEESIVQARNLVFYIKRLYPDEYNKYELKDILGMEMKVLEALDYYLVVFHPYRSLSEFLQDAALNDVNMNQITWGIVNDTYKMDLILVHPPYRIALACIYIASVHREKDITAWFEDLHEDMNLVKNIAMEILDFYENYRTITEEKVNSAFSKLALKL”, the “soluble on expression in E. coli” value is recorded as “soluble”.

Turning to “MGSDKIHHHHHHMAMAHGRRRVFGSVEHRKIDMSFRPLFGSGRIRTAGEQPAQPTTASWPGSSVVFDRRRWTCREAELRWTAPHHVLVLTEEGATSQTSIRSDGKMVYEGRDRSGAITFVPAGVERLGAYRDVDLTYSALWIDPRSISPASEHLKDLPVLINKSDTVISALLKSLSSEISNGHIPDSAYVDHLIALVTLRIRGFADEPVPAPRHDSLGSRVVKRVRDYVDAHLDGDISLGDLADVAGVASDSFARRFKVTTGFAPYAYVLEERIRRSEALLCETDTTLSAIALACGFSSQSHFTTTFKRLRGVTPQAYRSKVIPES”, the “soluble on expression in E. coli” value is listed as “not soluble”.

In the case of “GSHMSHDGKEEPGIAKKINSVDDIIIKCQCWVQKNDEERLAEILSINTRKAPPKFYVHYVNYNKRLDEWITTDRINLDKEVLYPKLKATDED”, the “soluble on expression in E. coli” value is given as “soluble”.

For the sequence “EGKTSSASPNNPQELKRRVIEEGFRRAGIEFGGLKGNSLEALRQFGDPMMATVVGLSLGFKGDVVLAGGTQMLAVAAILKGLGEDLSRFMIATTRWVVEDKSATFIKTAREIGIISYAADLDFSKSEFKGLRDYEKGYVKEGVGAGGATWLAV”, the “soluble on expression in E. coli” value is on record as “not soluble”.

For the sequence “SQEQAQTTDWRATLKTIRNGVHKIDTYLNAALDLLGGEDGLCQYKCSDGSKPFPRYGYKPSPPNGCGSPLFGVHLNIGIPSLTKCCNQHDRCYETCGKSKNDCDEEFQYCLSKICRDVQKTLGLTQHVQACETTVELLFDSVIHLGCKPYLDSQRAACRCHYEEKTDL”, the “soluble on expression in E. coli” value is “soluble”.

For “FINDVDLIITVEELDSFLEDQLLQLLGKHDISKTVYGKKNNIFPCCGEYSVDIVKTGINKVLDILKIQKIEISEKLIEKTDIIPLPVRPPNLCAGCMHRTVFYAFKEVSKDLKKQNIQIIFSGDIGCYTLGNAPPLELIDTCLCMGAGISLAGGI”, the “soluble on expression in E. coli” value is “not soluble”.

Take “MSLELEQLTSNSIRPYIPKGTHPVETGKYLISTNEIDRMYQTVLQWIGNRIPGAIIYGRPRLGKTRAITYLMNCLPQDFGNNMPIYHVRCRTYKRPNENSFFEDLLLAVGHSIAIQGKANVKRNRLLKFLVERSDFSGTNKVVFFIDDAQRLVEIHYDWLMDLFNELEQYGITLTTILVGQKELVHQRSAFISGEKFQIVGRFMSQEYQFKGIKTPRDLKICLTGYDEYCEYPINSNWSFTKYFFADSFIRGLRLQNSAEELFQVFVDLRREHGLSQKVEIPMQHITLTVEYALKNFGIDNLDLTTIEKTHWEESIKNSGYIQSELYQTTEGHHHHHH”: the “soluble on expression in E. coli” value is recorded as “not soluble”.

Turning to “MSLNREDRLVSAANSYLANNYECFLDDGVILTNNYSLLGTIKLGGIDFLTTSKKDLIELHASIYSVFRNFVTPEFKFYFHTVKKKIVIDETNRDYGLIFSNDFMRAYNEKQKRESFYDISFYLTIEQDLLDTLNEPVMNKKHFADNNFEEFQRIIRAKLENFKDRIELIEELLSKYHPTRLKEYTKDGIIYSKQCEFYNFLVGMNEAPFICNRKDLYLKEKMHGGVKEVYFANKHGKILNDDLSEKYFSAIEISEYAPKSQSDLFDKINALDSEFIFMHAYSPKNSQVLKDKLAFTSRRIIISGGSKEQGMTLGCLSELVGNGDITLGSYGNSLVLFADSFEKMKQSVKECVSSLNAKGFLANAATFSMENYFFAKHCSFITLPFIFDVTSNEGHHHHHH”, the “soluble on expression in E. coli” value was “soluble”.

“MAHHHHHHMRVASFCLPLHLLSFGAQARGCFRHSTGGSSSVFCAARPFRLSHTMAASACSSAVHLDNFRLLAAGHDATHAAPSSAPLTAPISFSLTFHFQRYDGADFESFISSLGVSVDFVADVASEQTTLTLLPLTPVSGPWARRDTAAANGAFLMAASASDSSTSSSDYAAGAPLDGAAGAAPGMMYQLRVYLSDFRALEKVQLKHLLQVSMMHVRLAHLGTSDGVGNSDSSDPRTEERSVAAWNVIWRVRRNPQNEQELIRTVLDPLA”: the “soluble on expression in E. coli” value is recorded as “not soluble”.

Consider “MKRLRSKMTTEELAECLGVARQTVNRWIREQHWKTEKFPGVKGGRARLIHIDASVREFILNIPAFRKLPAFYQAEEAFAEYANAAHSHAYRQIIDAVENMSAQEQEKLALFLSREGIRGFLTRLGINEAD”, for which the “soluble on expression in E. coli” value is “not soluble”.

As to “MGSDKIHHHHHHMIEQQMPFRRILLTSDTFQILKEGQIISTFNKCGIFYCQRGSVEVSLEGCHYHIKPGDVYIYMASTLVHLLHKSEDAEGIMVEVDFYYILPIVNKVINVESQLFMRKNPCVSLSGEQCAHFEYLLNNLWDRINAEDCQKENVQYQHLKLELIKSMGQTICYEILNMYFTNQPLQPLQQGKKDVVFQNFMLSLFRFYRKERDVSFYARMQHITPRYFSAIIKEKTGDSALQWIVRMVITEAKQLLEESDLSIKEIADQLNFPTQSFFGKYFKQYVGVSPKEYRNNAATTRIKR”, the “soluble on expression in E. coli” value was “not soluble”.

In the case of “MSLNSLDTSASTINGASIIQVIFEIFEISLQRKDYTSIVQCCEFMTMLTPNYLHLVSSYLNKSDLLDKYGKTGLSNMILGSVELSTGDYTFTIQLLKLTKVFIRESLSLKNIHISKRSKIDIINKLILHAIHIFESYYNWKYNNFLQKFEIAFHLTLIFYDVLHDVFTINPHQKDQLIISSSANKLLQLFLTPMDSIDLAPNTLTNILISPLNTTTKILGDKILGNLYSKVMNNSFKLCTLLISIRGSNRDLKPSNLEKLLFINSSKLVDVYTLPSYVHFKVQIIELLSYLVEAPWNDDYPFLLSFLGEAKSMAFLKEVLSDLSSPVQDWNLLRSLYIFFTTLLESKQDGLSILFLTGQFASNKKINDESSIDKKSSILTVLQKNSLLLDSTPEEVSCKLLETITYVLNTWTNSKIFIKDPKFVNSLLAKLKDSKKLFQKKENLTRDETVSLIKKYKLISRIVEIFALCIYNSTDSNSEILNFLNQEDLFELVHHFFQIDGFNKTFHDELNLKFKEKWPSLELQSFQKIPLSRINENENFGYDIPLLDIVLKADRSWNEPSKSQTNFKEEITDASLNLQYVNYEISTAKAWGALITTFVKRSTVPLNDGFVDLVEHFLKLNIDFGSDKQMFTQIYLERIELSFYILYSFKLSGKLLKEEKIIELMNKIFTIFKSGEIDFIKNIGKSLKNNFYRPLLRSVLVLLELVSSGDRFIELISDQLLEFFELVFSKGVYLILSEILCQINKCSTRGLSTDHTTQIVNLEDNTQDLLLLLSLFKKITNLNPSKNFNVILASSLNEVGTLKVILNLYSSAHLIRINDEPILGQITLTFISELCSIEPIAAKLINSGLYSVLLESPLSVAIQQGDIKPEFSPRLHNIWSNGLLSIVLLLLSQFGIKVLPETCLFVSYFGKQIKSTIYNWGDNKLAVSSSLIKETNQLVLLQKMLNLLNYQELFIQPKNSDDQQEAVELVIGEGHHHHHH”, the “soluble on expression in E. coli” value is “not soluble”.

As to “MGSDKIHHHHHHAEAPLRPDQAAFRDLYREMVETDTSITTGSCTLLADRIEARLRGAGFADGQIHRFAVPEFPKEGGIVAILPGTSAKARPILLLGHLDVVVAKREDWTRDPYRLIEEGGYFYGRGVADMKAMDAIWVDMLMRFRKEGRKPRRTIKLALTCGEETSTAFNGAKWLAENRRDLIDAEFALNEGGSGRTDKPLEEGGRVVLQTIHVGEKTPVNYRVEATNPGGHSSMPVRDNAIYELSDALVRLRDYEFPVMLNDTTRAFFAKAGAARGDAMGKAMVAVSADPADKAAVALLDTDRSFHSMLRTTCVATLLDGGHANNALPQRAGANVNCRIFPGVTAEEVRGTLETVVADPRMTVVRTDNRGPDAKAPPLDPKIVGPAEKLVAKYYPGVPMVPMMSTGATDGVFLGAVGIPSYGPPGLFGNPDGNGVHGLNERISVQAVYAGRDLLTELVTAYAF”, the “soluble on expression in E. coli” value is “not soluble”.

As for “MGSDKIHHHHHHMSETYPILIHLGEKLNRVIVGQSQLIQQLLVGLLSGGHIILEGVPGTGKTLLVKVLARLIQADFHRVQLTPDVLPSDITGTNIFDLNNRNFTLKKGPVFTEVLLADEINRTPPKTQAALLEAMEEMQVTLDGESLPLPDLFWVIATQNPLEFEGTYPLPEAQLDRFLFKLVVDYPDQTAEKQMLLNRQAGFAARRSDINSLQPIATVTDILEARQAVKAVKVSESIIDYLLALVRTSRQYPDLALGASPRAAGAWLQTSQAVAWLEGRDFVTPDDIKAVASPLLRHRLILKPEAMLDGLQIDAVIAAVVNQVAVPR”, the “soluble on expression in E. coli” value was “not soluble”.

With “MRAVVLKGFGGLEMLEERDLPVPEPGPGEVLVRNLAVAVNPVDAKIRAAGRWAGVEPPFVLGYDAAGVVAKVGPGVKDLKEGDEVYYTPEIFGNPHGTYAEYTPVPAGIVAKKPKNLSFAEAAAIPLAGGTAWKAVVRRLAVRPGETVLVMGGAGGVGSFAVQFAKAAGAYVIATASAENLPVLKELGADLALDYRGPWAEEVLKATEGQGVDAAFETAGESLVERVIPVVRPFGRIATILPPQGNLSGLYTKNQTLYGVFLTRERKRLLEMRPLFERGLARPLIAEVLPFSLENLRKAHARMDSGHGRGKIVLTFQA”, the “soluble on expression in E. coli” value is “soluble”.
